Data from US20050130203A1, “Novel GABAB receptor DNA sequences” (Board of Regents, The University of Texas System, priority 1998, published 2005).
One block for each molecule: values may come before it.

How the values were obtained:
GABABR1a = target: T1, GABABR1a (Mus musculus, UniProt Q9WV18); assay: Xenopus melanophore pigment aggregation/dispersion assay, GABABR1a alone; format: cell-based, murine; conditions: melanophores transfected with GABABR1a alone; up to 1 mM
T1 construct: GABABR1a was expressed by subcloning full-length GABABR1a into the NheI-NotI site of pcDNA3.1 or pCIneo; expressed in transfected cells; host or cells: Xenopus laevis melanophores (transient)

murine GABABR1a (murine) = murine GABABR1a (murine) (UniProt Q9WV18); assay: cell-based or functional assay
[1] = target: T2, FLAG epitope-tagged HG20 receptor subunit (FLAG epitope fused to amino acids 52-941 of HG20) (human, UniProt O75899 52-941); assay: co-immunoprecipitation and immunoblot
T2 construct: Expressed from SF-HG20/pcDNA3.1 in COS cells and melanophores, or from pT7TS cRNA in oocytes; For immunoprecipitation it was solubilized from membranes with digitonin; also called FLAG-HG20; SF-HG20
T2 sequence: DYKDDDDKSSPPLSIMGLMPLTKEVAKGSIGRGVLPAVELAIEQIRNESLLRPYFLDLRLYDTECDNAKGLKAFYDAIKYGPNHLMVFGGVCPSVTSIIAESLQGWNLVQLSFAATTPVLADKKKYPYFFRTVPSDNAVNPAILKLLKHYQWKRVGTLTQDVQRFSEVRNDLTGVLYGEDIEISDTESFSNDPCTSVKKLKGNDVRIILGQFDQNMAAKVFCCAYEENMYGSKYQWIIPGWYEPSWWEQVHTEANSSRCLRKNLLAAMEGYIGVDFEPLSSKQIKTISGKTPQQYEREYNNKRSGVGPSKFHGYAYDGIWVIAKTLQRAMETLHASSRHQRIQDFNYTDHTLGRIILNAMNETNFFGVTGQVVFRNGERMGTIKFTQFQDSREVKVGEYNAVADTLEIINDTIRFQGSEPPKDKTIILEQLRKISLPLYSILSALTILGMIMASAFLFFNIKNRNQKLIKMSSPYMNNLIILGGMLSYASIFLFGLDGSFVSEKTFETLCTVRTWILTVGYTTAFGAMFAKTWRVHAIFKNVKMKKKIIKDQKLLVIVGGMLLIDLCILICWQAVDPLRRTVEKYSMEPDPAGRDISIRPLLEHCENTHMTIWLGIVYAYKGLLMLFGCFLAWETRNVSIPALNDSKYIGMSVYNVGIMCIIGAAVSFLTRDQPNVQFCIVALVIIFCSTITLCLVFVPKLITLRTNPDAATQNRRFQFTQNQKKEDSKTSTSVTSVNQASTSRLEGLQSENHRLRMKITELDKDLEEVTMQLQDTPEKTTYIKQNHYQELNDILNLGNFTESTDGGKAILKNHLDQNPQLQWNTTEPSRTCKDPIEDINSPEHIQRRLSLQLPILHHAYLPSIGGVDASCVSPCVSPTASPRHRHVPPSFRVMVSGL

[2] = target: the molecule itself; assay: [125I]CGP71872 photolabelling of COS-7 membranes, SDS-PAGE (FIG. 9)

Protocol for wild-type HEK293 cells: Following a 20 min incubation at 37° C., the assay was terminated by setting the cells on ice and centrifuging at 2,000 rpm for 5 min at 4° C. […] Immulon II removawells (Dynatech; Chantilly, Va.) were coated overnight with 100 μl of protein G (1 mg/ml in 0.1M NaHCO3, pH 9.0) at 4° C. Prior to use, protein G-coated plates were rinsed with PBS-gelatin-Tween (phosphate buffered saline containing 0.1% gelatin, 0.2% Tween-20) 3 times quickly, and then once for 30 minutes. […] Plates were incubated 2 hr at 37° C. or overnight at 4° C., rinsed 3 times with sodium acetate buffer, blotted dry, and then individual wells were broken off and bound radioactivity was determined in a gamma counter.

Molecule: N[C@@H](CCC(=O)O)C(=O)O [L-Glutamate, (L)-glutamic acid]
pigment aggregation or dispersion response (GABABR1a): no pigment aggregation or dispersion response

Molecule: NCC(CC(=O)O)c1ccc(Cl)cc1 (stereo not shown) [baclofen]
inhibition of forskolin-stimulated cAMP synthesis (wild-type HEK293 cells): did not exhibit

Molecule: NC/C=C\C(=O)O [cis-4-aminocrotonic acid]
pigment aggregation or dispersion response (GABABR1a): no pigment aggregation or dispersion response

Molecule: O=S(=O)(O)C1CCNCC1 [piperidine-4-sulfonic acid]
pigment aggregation or dispersion response (GABABR1a): no pigment aggregation or dispersion response

reduction of forskolin-stimulated cAMP synthesis in HEK293 cells (hgb2-42 cells transfected with GABABR1a, GABA plus AOAA and nipecotic acid) (murine GABABR1a (murine)): 43 % decrease
Molecule: HG20 as expressed in HEK293 cells (HG20 cDNA in pcDNA3.1) (from UniProt O75899 42-941)

reduction of forskolin-stimulated cAMP synthesis in HEK293 cells (hgb2-42 cells transfected with GABABR1a, baclofen) (murine GABABR1a (murine)): 34 % reduction
reduction of forskolin-stimulated cAMP synthesis in HEK293 cells (rgb1a-50 cells transfected with HG20, 30 µM GABA plus AOAA and nipecotic acid) (murine GABABR1a (murine)): 40 % decrease
reduction of forskolin-stimulated cAMP synthesis in HEK293 cells (rgb1a-50 cells transfected with HG20, 30 µM baclofen) (murine GABABR1a (murine)): 28 % reduction
Molecule: HG20 as expressed in HEK293 cells (HG20 cDNA in pcDNA3.1) (from UniProt O75899 42-941) (receptor)

binding result [1]: binds
B1: murine GABABR1a (receptor)
chain: GAQTPNVTSEGCQIIHPPWEGGIRYRGLIRDQVKAINFLPVDYEIEYVCRGEREVVGPKVRKCLANGSWTDMDTPSRCVRICSKSYLTLENGKVFLTGGDLPALDGARVDFRCDPDFHLVGSSRSICSQGQWSTPKPHCQVNRTPHSERRAVYIGALFPMSGGWPGGQACQPAVEMALEDVNSRRDILPDYELKLIHHDSKCDPGQATKYLYELLYNDPIKIILMPGCSSVSTLVAEAARMWNLIVLSYGSSSPALSNRQRFPTFFRTHPSATLHNPTRVKLFEKWGWKKIATIQQTTEVFTSTLDDLEERVKEAGIEITFRQSFFSDPAVPVKNLKRQDARIIVGLFYETEARKVFCEVYKERLFGKKYVWFLIGWYADNWFKTYDPSINCTVEEMTEAVEGHITTEIVMLNPANTRSISNMTSQEFVEKLTKRLKRHPEETGGFQEAPLAYDAIWALALALNKTSGGGGRSGVRLEDFNYNNQTITDQIYRAMNSSSFEGVSGHVVFDASGSRMAWTLIEQLQGGSYKKIGYYDSTKDDLSWSKTDKWIGGSPPADQTLVIKTFRFLSQKLFISVSVLSSLGIVLAVVCLSFNIYNSHARYIQNSQPNLNNLTAVGCSLALAVVFPLGLDGYHIGRSQFPFVCQARLWLLGLGFSLGYGSMFTKIWWVHTVFTKKEEKKEWRKTLEPWKLYATVGLLVGMDVLTLAIWQIVDPLHRTIETFAKEEPKEDIDVSILPQLEHCSSKKMNTWLGIFYGYKGLLLLLGIFLAYETKSVSTEKINDHRAVGMAIYNVAVLCLITAPVTMILSSQQDAAFAFASLAIVFSSYITLVVLFVPKMRRLITRGEWQSETQDTMKTGSSTNNNEEEKSRLLEKENRELEKIIAEKEERVSELRHQLQSRQQLRSRRHPPTPPDPSGGLPRGPSEPPDRLSCDGSRVHLLYK
notes: Full-length cDNA was expressed in COS-7 cells, HEK293 cells, melanophores and oocytes; also called mgb1a; gb1a
binding result [2]: binds
